Assay results: publication PMC11796320 (The Febs Journal, 2024)
“And” between values parts separate entries of the source, which are not always exact repeats. Identical values can stand only once.

Assays:
[1] = target: the molecule itself; assay: cryo-EM 2D classification
[2] = target: the molecule itself; assay: cryo-EM structure

B1: full-length mature human contactin-2 (CNTN2), residues 29-1012, wild type (natural protein, UniProt Q02246 29-1012, looked up)
chain: LGSQTTFGPVFEDQPLSVLFPEESTEEQVLLACRARASPPATYRWKMNGTEMKLEPGSRHQLVGGNLVIMNPTKAQDAGVYQCLASNPVGTVVSREAILRFGFLQEFSKEERDPVKAHEGWGVMLPCNPPAHYPGLSYRWLLNEFPNFIPTDGRHFVSQTTGNLYIARTNASDLGNYSCLATSHMDFSTKSVFSKFAQLNLAAEDTRLFAPSIKARFPAETYALVGQQVTLECFAFGNPVPRIKWRKVDGSLSPQWTTAEPTLQIPSVSFEDEGTYECEAENSKGRDTVQGRIIVQAQPEWLKVISDTEADIGSNLRWGCAAAGKPRPTVRWLRNGEPLASQNRVEVLAGDLRFSKLSLEDSGMYQCVAENKHGTIYASAELAVQALAPDFRLNPVRRLIPAARGGEILIPCQPRAAPKAVVLWSKGTEILVNSSRVTVTPDGTLIIRNISRSDEGKYTCFAENFMGKANSTGILSVRDATKITLAPSSADINLGDNLTLQCHASHDPTMDLTFTWTLDDFPIDFDKPGGHYRRTNVKETIGDLTILNAQLRHGGKYTCMAQTVVDSASKEATVLVRGPPGPPGGVVVRDIGDTTIQLSWSRGFDNHSPIAKYTLQARTPPAGKWKQVRTNPANIEGNAETAQVLGLTPWMDYEFRVIASNILGTGEPSGPSSKIRTREAAPSVAPSGLSGGGGAPGELIVNWTPMSREYQNGDGFGYLLSFRRQGSTHWQTARVPGADAQYFVYSNESVRPYTPFEVKIRSYNRRGDGPESLTALVYSAEEEPRVAPTKVWAKGVSSSEMNVTWEPVQQDMNGILLGYEIRYWKAGDKEAAADRVRTAGLDTSARVSGLHPNTKYHVTVRAYNRAGTGPASPSANATTMKPPPRRPPGNISWTFSSSSLSIKWDPVVPFRNESAVTGYKMLYQNDLHLTPTLHLTGKNWIEIPVPEDIGHALVQIRTTGPGGDGIPAEVHIVRNGGTSMMVEN
modifications: N-linked glycans at Asn76, Asn198, Asn461, Asn477, Asn498, Asn525 (densities in the cryo-EM map)
Q: Which “stoichiometry N” value [1] does the source give for B1 here?
A: The value was 4 and 6.

Q: What about the “stoichiometry N” value [2] of the same protein?
A: The value was 2.
